We go through 3 molecules from article PMC11074293 (Nature Communications, 2024).

Series [1] concerns the molecule itself. As to the kind of experiment: SEC-MALS; WTC-015S5 column, low salt buffer; complexes at 2 mg/ml, KLHL22^1–178 and KLHL12^1–161 alone at 3 mg/ml.
The target in series [2] is T1, CUL3^WT-RBX1 (human, UniProt Q13618 1-768; P62877 1-108).
T1 construct: Cullin-3 (CUL3), human, full length; also called CUL3-RBX1; (CUL3-His6)-RBX1; source: SF9 insect cells, co-expressed from pFastbac-dual, purified (Ni-IDA, SEC); copies: 1 + 1
T1 sequence (Q13618 whole entry, chain 1 of 2): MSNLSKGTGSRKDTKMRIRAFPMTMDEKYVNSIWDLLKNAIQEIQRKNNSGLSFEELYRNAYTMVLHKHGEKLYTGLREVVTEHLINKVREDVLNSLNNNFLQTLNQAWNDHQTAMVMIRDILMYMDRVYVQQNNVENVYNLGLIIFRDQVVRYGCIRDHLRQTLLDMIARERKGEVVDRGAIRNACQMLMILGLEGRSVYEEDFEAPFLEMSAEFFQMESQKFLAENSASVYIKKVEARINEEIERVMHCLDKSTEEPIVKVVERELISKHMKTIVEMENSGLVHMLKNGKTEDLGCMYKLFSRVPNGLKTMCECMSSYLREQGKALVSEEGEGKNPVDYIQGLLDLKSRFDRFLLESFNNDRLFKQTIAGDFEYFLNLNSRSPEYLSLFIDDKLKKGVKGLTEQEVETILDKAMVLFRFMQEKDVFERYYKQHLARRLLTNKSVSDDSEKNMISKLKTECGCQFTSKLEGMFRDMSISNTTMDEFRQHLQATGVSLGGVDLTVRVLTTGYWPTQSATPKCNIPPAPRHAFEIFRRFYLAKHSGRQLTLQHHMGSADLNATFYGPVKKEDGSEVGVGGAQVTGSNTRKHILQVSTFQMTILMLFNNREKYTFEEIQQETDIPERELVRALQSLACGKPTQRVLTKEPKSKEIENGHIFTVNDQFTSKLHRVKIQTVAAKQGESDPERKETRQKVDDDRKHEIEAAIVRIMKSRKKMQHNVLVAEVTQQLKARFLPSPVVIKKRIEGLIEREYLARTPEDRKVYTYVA
T1 sequence (P62877 whole entry, chain 2 of 2): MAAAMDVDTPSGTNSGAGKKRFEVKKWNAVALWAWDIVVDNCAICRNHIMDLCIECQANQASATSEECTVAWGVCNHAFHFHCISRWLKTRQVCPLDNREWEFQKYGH
As to the kind of experiment: SEC; analytical SEC, Superdex 200 Increase 10/300 GL, 20 mM Tris-HCl pH 8.0, 150 mM NaCl, 1% glycerol, 1 mM TCEP; purified proteins mixed 1:1 (also 2:1 and 4:1 CUL3-RBX1 to BTB protein), 10 min on ice. Conditions: both partners purified.

Series [3] deals with T2, CUL3^Δ1–13-RBX1 (human, UniProt Q13618 14-768; P62877 1-108).
T2 construct: Cullin-3 (CUL3), human, residues 1-13 deleted (partial deletion of the NA motif); RBX1, human, without a tag; source: purified; host stated only for wild-type CUL3-RBX1 (SF9); copies: 1 + 1
T2 sequence (Q13618 14-768, stated change not applied, chain 1 of 2): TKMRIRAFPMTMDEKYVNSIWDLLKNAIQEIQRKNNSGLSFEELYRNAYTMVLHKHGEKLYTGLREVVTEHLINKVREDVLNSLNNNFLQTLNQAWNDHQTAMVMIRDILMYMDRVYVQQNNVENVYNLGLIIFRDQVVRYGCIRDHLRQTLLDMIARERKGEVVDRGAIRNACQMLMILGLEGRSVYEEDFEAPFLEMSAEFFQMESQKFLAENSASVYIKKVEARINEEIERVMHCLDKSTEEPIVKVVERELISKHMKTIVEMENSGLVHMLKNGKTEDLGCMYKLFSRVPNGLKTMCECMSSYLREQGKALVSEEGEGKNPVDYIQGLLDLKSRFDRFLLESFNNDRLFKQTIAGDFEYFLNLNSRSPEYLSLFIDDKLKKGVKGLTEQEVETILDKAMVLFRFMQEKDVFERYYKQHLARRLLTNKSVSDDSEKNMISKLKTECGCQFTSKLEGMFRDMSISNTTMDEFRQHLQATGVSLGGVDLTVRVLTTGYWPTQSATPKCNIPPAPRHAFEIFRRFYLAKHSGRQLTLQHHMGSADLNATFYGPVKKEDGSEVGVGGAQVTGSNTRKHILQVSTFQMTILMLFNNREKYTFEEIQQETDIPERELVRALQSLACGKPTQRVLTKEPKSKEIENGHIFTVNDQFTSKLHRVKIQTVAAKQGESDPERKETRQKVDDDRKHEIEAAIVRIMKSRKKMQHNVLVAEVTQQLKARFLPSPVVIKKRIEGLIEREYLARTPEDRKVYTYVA
T2 sequence (P62877 whole entry, stated change not applied, chain 2 of 2, the tested form may be a part): as the sequence (P62877 whole entry, chain 2 of 2) above
The series is described as above. To be noted: both partners purified.

Series [4] deals with T3, CUL3^Δ1–24-RBX1 (human, UniProt Q13618 25-768; P62877 1-108).
T3 construct: Cullin-3 (CUL3), human, residues 1-24 (the whole NA motif) deleted; RBX1, human, without a tag; source: purified; host stated only for wild-type CUL3-RBX1 (SF9); copies: 1 + 1
T3 sequence (Q13618 25-768, stated change not applied, chain 1 of 2): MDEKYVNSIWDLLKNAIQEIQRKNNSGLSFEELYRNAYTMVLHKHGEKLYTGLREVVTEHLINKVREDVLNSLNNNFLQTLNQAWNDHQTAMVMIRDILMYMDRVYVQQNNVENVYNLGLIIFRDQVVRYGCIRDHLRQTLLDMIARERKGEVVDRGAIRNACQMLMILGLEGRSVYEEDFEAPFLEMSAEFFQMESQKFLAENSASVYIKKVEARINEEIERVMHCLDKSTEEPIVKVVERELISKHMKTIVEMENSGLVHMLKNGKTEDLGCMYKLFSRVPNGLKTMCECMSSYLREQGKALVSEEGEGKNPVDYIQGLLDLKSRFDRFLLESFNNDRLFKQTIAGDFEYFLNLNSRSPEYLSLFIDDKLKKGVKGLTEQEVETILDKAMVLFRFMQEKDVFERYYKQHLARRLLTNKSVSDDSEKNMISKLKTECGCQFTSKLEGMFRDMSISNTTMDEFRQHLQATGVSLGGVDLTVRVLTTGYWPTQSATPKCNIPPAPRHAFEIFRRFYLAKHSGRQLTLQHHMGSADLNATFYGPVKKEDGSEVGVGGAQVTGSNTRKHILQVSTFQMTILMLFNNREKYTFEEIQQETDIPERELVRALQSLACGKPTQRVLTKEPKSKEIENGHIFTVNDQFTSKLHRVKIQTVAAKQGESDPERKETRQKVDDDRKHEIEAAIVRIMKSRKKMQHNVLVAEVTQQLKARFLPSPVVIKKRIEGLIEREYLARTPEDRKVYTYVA
T3 sequence (P62877 whole entry, stated change not applied, chain 2 of 2, the tested form may be a part): as the sequence (P62877 whole entry, chain 2 of 2) above
Described as above. To be noted: both partners purified.

Series [5] deals with the molecule itself. As to the kind of experiment: cryo-EM structure; full-length CUL3-RBX1-KLHL22 co-expressed in SF9, purified, GraFix (glutaraldehyde gradient); C2 symmetry, 3.8 Å overall, 3.3 Å for the dimer assembly region.
The target of series [6] is T1, CUL3^WT-RBX1. As to the kind of experiment: ITC; ITC200; CUL3-RBX1 (120 μM) in the syringe titrated into KLHL22^1–178 (10 μM) in the cell, 25 °C, one-site model; repeated with KLHL22^1–178 (120 μM) into CUL3-RBX1 (12 μM). Conditions: both partners purified.
For series [7], the target named is T2, CUL3^Δ1–13-RBX1. The series is described as above. Conditions: both partners purified.
Series [8] addresses T3, CUL3^Δ1–24-RBX1. The description is as above. To be noted: both partners purified.

B1: KLHL12^1–161 (domain or fragment, human, UniProt Q53G59 1-161, looked up)
chain: MGGIMAPKDIMTNTHAKSILNSMNSLRKSNTLCDVTLRVEQKDFPAHRIVLAACSDYFCAMFTSELSEKGKPYVDIQGLTASTMEILLDFVYTETVHVTVENVQELLPAACLLQLKGVKQACCEFLESQLDPSNCLGIRDFAETHNCVDLMQAAEVFSQKH
notes: TEV site ENLYFQG: a residue of the site may be left at the N-terminus after cleavage; source: E. coli BL21(DE3), purified (Ni-IDA, SEC), His-MBP tag removed with TEV protease; not shown: His6, N-terminal, cleaved; MBP, N-terminal, cleaved
In the case of B1, the “stoichiometry N” value in series [1] came to 2. In addition, the binding result with CUL3^WT-RBX1 [2], with CUL3^Δ1–13-RBX1 [3] and with CUL3^Δ1–24-RBX1 [4] was “binds” throughout.

B2: KLHL22 (full length, N-terminal His6) (natural protein, human, UniProt Q53GT1 1-634, looked up)
chain: MAEEQEFTQLCKLPAQPSHPHCVNNTYRSAQHSQALLRGLLALRDSGILFDVVLVVEGRHIEAHRILLAASCDYFRGMFAGGLKEMEQEEVLIHGVSYNAMCQILHFIYTSELELSLSNVQETLVAACQLQIPEIIHFCCDFLMSWVDEENILDVYRLAELFDLSRLTEQLDTYILKNFVAFSRTDKYRQLPLEKVYSLLSSNRLEVSCETEVYEGALLYHYSLEQVQADQISLHEPPKLLETVRFPLMEAEVLQRLHDKLDPSPLRDTVASALMYHRNESLQPSLQSPQTELRSDFQCVVGFGGIHSTPSTVLSDQAKYLNPLLGEWKHFTASLAPRMSNQGIAVLNNFVYLIGGDNNVQGFRAESRCWRYDPRHNRWFQIQSLQQEHADLSVCVVGRYIYAVAGRDYHNDLNAVERYDPATNSWAYVAPLKREVYAHAGATLEGKMYITCGRRGEDYLKETHCYDPGSNTWHTLADGPVRRAWHGMATLLNKLYVIGGSNNDAGYRRDVHQVACYSCTSGQWSSVCPLPAGHGEPGIAVLDNRIYVLGGRSHNRGSRTGYVHIYDVEKDCWEEGPQLDNSISGLAACVLTLPRSLLLEPPRGTPDRSQADPDFASEVMSVSDWEEFDNSSED
notes: Kelch-like protein 22 (KLHL22), human, full length; Dimer in the cryo-EM structure of CRL3^KLHL22; also called His6-KLHL22
With B2, the binding result in series [5] is “binds”.

B3: KLHL22^1–178 (domain or fragment, human, UniProt Q53GT1 1-178, looked up)
chain: MAEEQEFTQLCKLPAQPSHPHCVNNTYRSAQHSQALLRGLLALRDSGILFDVVLVVEGRHIEAHRILLAASCDYFRGMFAGGLKEMEQEEVLIHGVSYNAMCQILHFIYTSELELSLSNVQETLVAACQLQIPEIIHFCCDFLMSWVDEENILDVYRLAELFDLSRLTEQLDTYILKN
notes: as for B1
Take B3: the “stoichiometry N” value in series [1] came out at 2. Besides, the figures for the Kd in the series with CUL3^WT-RBX1 [6], in the series with CUL3^Δ1–13-RBX1 [7] and in the series with CUL3^Δ1–24-RBX1 [8] were about 27 nM, about 87 nM and about 383 nM, respectively.
